According to the supplement of paper PMC7877785:
± gives the uncertainty stated by the source.

Assay: self-splicing fitness, log relative to wild type (ln ratio); higher = more splicing; Tetrahymena group I intron in knt gene, E. coli kanamycin selection, DiMSum; sequences stand for … in CUCUCU…GGAGGGAAAAGUUAUCAGGCAUGCACCUGGUAGCUAGUCUUUAAACCAAUAGAUUGCAUCGGUUUAAAAGGCAAGACCGUCAAAUUGCGGGAAAGGGGUCAACAGCCGUUCAGUACCAAGUCUCAGGGGAAACUUUGAGAUGGCCUUGCAAAGGGUAUGGUAAUAAGCUGACGGACAUGGUCCUAACCACGCAGCCAAGUCCUAAGUCAACAGAUCUUCUGUUGAUAUGGAUGCAGUUCACAGACUAAAUGUCGGUCGGGGAAGAUGUAUUCUUCUCAUAAGAUAUAGUCGGACCUCUCCUUAAUGGGAGCUAGCGGAUGAAGUGAUGCAACACUGGAGCCGCUGGGAACUAAUUUGUAUGCGAAAGUAUAUUGAUUAGUUUUGGAGUACUCGUGGUCG
Procedure, shortened: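 A randomised library covering all eight P1ex-region intron nucleotides was built with the intron in the knt kanamycin-resistance gene on pET-22b(+) and held in E. coli BL21(DE3). Cells were grown overnight at 37°C or 30°C on LB agar, with or without 25 μg/mL kanamycin, plus 100 μg/mL carbenicillin, 50 μM IPTG and 0.2% rhamnose, and pooled colonies were amplicon-sequenced on an Illumina HiSeq 2500. DiMSum fitness is the error-weighted combination of wild-type-normalised replicate fold changes, kanamycin versus none.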

| Sequence | self-splicing fitness (ln) (30 °C) | self-splicing fitness (ln) (37 °C) |
| --- | --- | --- |
| ACCCAGCAAUAUUACGUUAG | -3.31 ± 0.11 | -3.09 ± 0.15 |
| GAUUAGCAAUAUUACGAUGC | -0.852 ± 0.083 | -0.525 ± 0.095 |
| CAGCAGCAAUAUUACGAGAU | -2.65 ± 0.24 | -1.71 ± 0.2 |
| GUAGAGCAAUAUUACGGAAC | -1.59 ± 0.3 |  |
| CUCUAGCAAUAUUACGUCCA |  | -2.12 ± 0.4 |
| ACGGAGCAAUAUUACGGGCU | -2.7 ± 0.25 | -2.43 ± 0.27 |
| AUAAAGCAAUAUUACGUCGA | -0.992 ± 0.068 | 0.858 ± 0.086 |
| ACAUAGCAAUAUUACGUCAG | -2.66 ± 0.13 | -3.18 ± 0.18 |
| UUCAAGCAAUAUUACGCCGG | -0.231 ± 0.097 | -0.469 ± 0.13 |
| CCGUAGCAAUAUUACGAACA | -2.12 ± 0.2 | -2.26 ± 0.19 |
| ACCAAGCAAUAUUACGCUUU | -2.41 ± 0.093 | -1.45 ± 0.1 |
| GCACAGCAAUAUUACGUCAU | -1.89 ± 0.071 | -0.731 ± 0.082 |
| CUGAAGCAAUAUUACGAACA | -2.82 ± 0.41 | -2.11 ± 0.23 |
| CUAGAGCAAUAUUACGGGGU |  | -2.6 ± 0.3 |
| UAAUAGCAAUAUUACGGAGG | -3.17 ± 0.24 | -2.83 ± 0.4 |
| AGCCAGCAAUAUUACGUGCU | -3.62 ± 0.18 | -2.06 ± 0.21 |
| CCGGAGCAAUAUUACGAUGC | -2.69 ± 0.41 |  |
| AACCAGCAAUAUUACGGUGC | -3.48 ± 0.16 | -1.75 ± 0.13 |
| AUUUAGCAAUAUUACGUCGC | -3.64 ± 0.26 | -2.2 ± 0.21 |
| UCUUAGCAAUAUUACGCGGC | -2.44 ± 0.3 | -0.722 ± 0.36 |
| AAACAGCAAUAUUACGACGU | -0.232 ± 0.045 | 0.39 ± 0.052 |
| GUAGAGCAAUAUUACGGCAA | -2.01 ± 0.13 | -0.535 ± 0.21 |
| GUUAAGCAAUAUUACGACCG | -2.84 ± 0.48 | -1.22 ± 0.4 |
| GCGAAGCAAUAUUACGAAGU | -2.99 ± 0.35 | -2.89 ± 0.26 |
| AUAGAGCAAUAUUACGGAGU | -0.705 ± 0.093 | -1.03 ± 0.14 |
| AAAAAGCAAUAUUACGUAAU | -1.4 ± 0.063 | -0.916 ± 0.085 |
| GGAAAGCAAUAUUACGUUCA | 0.00884 ± 0.082 | 0.0862 ± 0.13 |

| Sequence | self-splicing fitness (ln) (30 °C) | self-splicing fitness (ln) (37 °C) |
| --- | --- | --- |
| UGGUAGCAAUAUUACGCACG | -0.419 ± 0.17 |  |
| GACUAGCAAUAUUACGUCGU | -3.23 ± 0.18 | -1.47 ± 0.13 |
| UGAAAGCAAUAUUACGCCGG | -0.876 ± 0.11 | -0.346 ± 0.15 |
| GUGUAGCAAUAUUACGAAGC | -2.07 ± 0.17 | -0.684 ± 0.23 |
| CAACAGCAAUAUUACGAGUG | -1.59 ± 0.051 | -0.292 ± 0.071 |
| CCCAAGCAAUAUUACGCCAU | -3.28 ± 0.22 | -2.5 ± 0.23 |
| AUUAAGCAAUAUUACGACGG | -2.32 ± 0.23 | -2.54 ± 0.41 |
| AAGAAGCAAUAUUACGCAUC | -1.92 ± 0.22 | -0.986 ± 0.2 |
| GACCAGCAAUAUUACGCGUG | -0.273 ± 0.041 | 0.216 ± 0.059 |
| AUGUAGCAAUAUUACGGCCG | -2.32 ± 0.31 | -0.303 ± 0.33 |
| UCCAAGCAAUAUUACGGCCU | -2.33 ± 0.29 | -2.6 ± 0.27 |
| UGUCAGCAAUAUUACGUAGU | -2.85 ± 0.15 | -0.865 ± 0.11 |
| CGGAAGCAAUAUUACGACGU | -2.55 ± 0.11 | -0.27 ± 0.12 |
| GUGAAGCAAUAUUACGUCAA | -1.07 ± 0.077 | -0.245 ± 0.084 |
| GAUCAGCAAUAUUACGUUCG | -1.33 ± 0.063 | 0.136 ± 0.073 |
| UCUAAGCAAUAUUACGAGCA | -1.38 ± 0.15 | -0.145 ± 0.15 |
| ACGCAGCAAUAUUACGCACC | -0.334 ± 0.18 | -0.22 ± 0.18 |
| CGUGAGCAAUAUUACGGCGU | -2.44 ± 0.18 | -1.32 ± 0.17 |
| AGUAAGCAAUAUUACGAACA | -0.711 ± 0.13 | -0.282 ± 0.14 |
| GUCUAGCAAUAUUACGCAGU | -1.25 ± 0.13 | 0.0079 ± 0.15 |
| CUUAAGCAAUAUUACGUCGG | -1.66 ± 0.097 | -0.424 ± 0.11 |
| UUAGAGCAAUAUUACGUUGC | -2.58 ± 0.22 | -1.25 ± 0.33 |
| CUCAAGCAAUAUUACGGCGU | -2.09 ± 0.23 | -2.39 ± 0.46 |
| UGAUAGCAAUAUUACGUGUU | -3.87 ± 0.19 | -2.6 ± 0.2 |
| UCCUAGCAAUAUUACGUUGA | -0.805 ± 0.071 | 0.0396 ± 0.089 |
| CAUUAGCAAUAUUACGGGAG | -1.46 ± 0.12 | -1.09 ± 0.11 |
| ACUUAGCAAUAUUACGAUGA | -0.609 ± 0.094 | -1.2 ± 0.1 |

| Sequence | self-splicing fitness (ln) (30 °C) | self-splicing fitness (ln) (37 °C) |
| --- | --- | --- |
| UAUAAGCAAUAUUACGUUGG | -2.78 ± 0.13 | -2.23 ± 0.17 |
| AGGGAGCAAUAUUACGCAGA |  | -3.27 ± 0.43 |
| AAACAGCAAUAUUACGUCGU | -2.13 ± 0.071 | -0.661 ± 0.071 |
| GUAAAGCAAUAUUACGCCCC | -0.801 ± 0.089 | -0.0225 ± 0.12 |
| CACUAGCAAUAUUACGGCUU | -3.4 ± 0.24 | -1.91 ± 0.21 |
| GUAGAGCAAUAUUACGAUGA | -1.5 ± 0.1 | -0.479 ± 0.12 |
| UAAGAGCAAUAUUACGUUGU | -1.95 ± 0.2 | -0.367 ± 0.31 |
| AUGCAGCAAUAUUACGUUAC | -3.57 ± 0.3 | -1.54 ± 0.22 |
| GUCAAGCAAUAUUACGAUAA | -1.8 ± 0.14 | -1.58 ± 0.15 |
| CAUAAGCAAUAUUACGGCAC | -2.85 ± 0.22 | -2.59 ± 0.21 |
| AGCAAGCAAUAUUACGCGAG | -3.61 ± 0.16 | -2.87 ± 0.19 |
| UUGCAGCAAUAUUACGUCCC |  | -1.44 ± 0.37 |
| UGCGAGCAAUAUUACGCAGC |  | -1.49 ± 0.37 |
| GAGCAGCAAUAUUACGGCCA | -0.255 ± 0.097 | -0.361 ± 0.14 |
| ACGCAGCAAUAUUACGGUCA | -1.15 ± 0.069 | -0.339 ± 0.069 |
| UGAGAGCAAUAUUACGGCUU | -4.13 ± 0.42 |  |
| GCGAAGCAAUAUUACGAGGG | -3.77 ± 0.23 | -3.27 ± 0.35 |
| AAUGAGCAAUAUUACGCCGC |  | -1.7 ± 0.42 |
| UGAAAGCAAUAUUACGUGUG | -1.67 ± 0.077 | -0.52 ± 0.081 |
| GGCGAGCAAUAUUACGUCAU | -2.45 ± 0.14 | -1.76 ± 0.11 |
| UACAAGCAAUAUUACGUUUG | -3.72 ± 0.13 | -2.57 ± 0.15 |
| AAUGAGCAAUAUUACGAGGG | -4.5 ± 0.29 | -1.98 ± 0.17 |
| UUAGAGCAAUAUUACGACUG | -1.13 ± 0.096 | 0.345 ± 0.14 |
| CGUAAGCAAUAUUACGUUCU | -1.61 ± 0.13 | -0.0321 ± 0.12 |
| AUAGAGCAAUAUUACGAGUA | -3.77 ± 0.33 | -2.52 ± 0.28 |
